In patent US20230242902A1, “A HIGHLY ERROR-PRONE […] R[…] FOR TARGETED CONTINUOUS EVOLUTION IN VIVO” (The Regents of the University of California, priority 2017, published 2023):
Where a chain is given by its changes, count along the chain named. Names and notes keep the numbering of the source. Values joined by “and” are separate entries in the source; they are usually repeats but may differ in a detail not shown here. Equal values may be shown once.

Assays:
Assay type in all cases: cell-based, S. cerevisiae
p1-encoded leu2* = test: p1 leu2* fluctuation tests in AR-Y304 (p1 mutation rate reporter strain, mutual orthogonality); details: for change in p1 mutation rate by TP-DNAP2: AR-Y304, noncognate polymerase in trans
Excerpt: Strains for testing mutual orthogonality were generated by transforming a panel of CEN6/ARS4 vectors encoding TP-DNAP1 or TP-DNAP2 variants into two base strains, AR-Y304 and GA-Y021. AR-Y304 (Ravikumar et al., 2014, Nature Chemical Biology, 10:175-177) contains recombinant p1 encoding mKate2, URA3 and leu2* without disturbing the native TP-DNAP1 ORF. Similarly, GA-Y021 encodes recombinant p2 that replaces ORF1 with mKate2, URA3 and leu2* without disturbing the native TP-DNAP2 ORF.
To precisely measure p1 and p2 per-base substitution mutation rates, several modifications were made to the small-scale protocol. First, 36 replicates were performed for reconfirmation of candidate TP-DNAP2 mutators, and 48 replicates for genomic and mutual orthogonality experiments. Titers were also determined for each strain after spot plating by pooling the residual volume from 4 replicates and plating dilutions on YPD. The expected number of LEU2 functional mutants (m) was determined by the Ma-Sandri-Sarkar maximum likelihood estimator (as calculated by the FALCOR tool and corrected for partial plating (Foster, 2006, Methods Enzymol, 409:195-213; Sarkar et al., 1992, Genetica, 85:173-179; Hall et al., 2009, Bioinformatics, 25:1564-1565). The mean mKate2 fluorescence was determined from 50,000 event counts on Attune™ NxT Flow Cytometer and converted to p2 copy number by using a calibration curve. To determine per-base substitution rates, the corrected m was normalized to the average cell titer, the p2 copy number, and the target size for functional leu2* reversion (2.33 bp). 95% confidence intervals were similarly scaled.
To test whether the replication mechanisms of p1 and p2 are mutually orthogonal in vivo, p1 and p2 mutation rates were measured in the presence of a panel of TP-DNAP1 and TP-DNAP2 variants with varying mutation rates. Changes in p1 or p2 mutation rate induced by TP-DNAP variants would therefore signal a degree of cross-replication between TP-DNAP1/p1 and TP-DNAP2/p2, if any. A panel of six polymerases was introduced on CEN6/ARS4 vectors into two separate base strains, AR-Y304 (p1 mutation rate reporter strain) and GA-Y021 (p2 mutation rate reporter strain), encoding mKate2, URA3, and leu2* on either p1 or p2, respectively. Included in this panel were TP-DNAP1^WT and two error-prone TP-DNAP1 variants found in previous screens: TP-DNAP1^1777K, L900S and TP-DNAP1^L477V, L640Y, I777K, W814N. Also included were TP-DNAP2^WT and the error-prone TP-DNAP2^S370Q and TP-DNAP2^Y424Q variants found in this work. In AR-Y304 and GA-Y021, both p1 and p2 still encode their native wt TP-DNAP's. Any contribution to replication by a third TP-DNAP encoded in trans is monitored by detecting changes in linear plasmid mutation rate. Importantly, these experiments afford each DNAP an opportunity to replicate its native plasmid and lose its attached TP, becoming “spent” and perhaps more likely to replicate its noncognate linear plasmid through DNAP exchange (Klassen and Meinhardt, 2007, Linear Protein-Primed Replicating Plasmids in Eukaryotic Microbes, in Microbial Linear Plasmids, pp 1 87-226. Springer, Berlin, Heidelberg). The presence of TP-DNAP1^WT or TP-DNAP2^WT in trans had no effect on their noncognate linear plasmids' mutation rate. […] Likewise, p1 mutation rate was unaltered in the presence of mutagenic TP-DNAP2^S370Q and TP-DNAP2^Y424Q, which increased p2 mutation rate by 29- and 16-fold, respectively (FIG. 9). Thus, TP-DNAP1 replicates p1 with at least 870-fold specificity over p2, while TP-DNAP2 targets p2 with at least 29-fold specificity over p1. The level of mutual orthogonality measured here is limited by the error-rates of DNAPs used, especially that of TP-DNAP2 variants.

p1 = p1 copy number by p1-encoded mKate2 fluorescence
Procedure, shortened: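 Read-out is mKate2 fluorescence of saturated OR-Y24 cultures, measured by flow cytometry or by plate reader with OD600 normalization. Flow values were converted by a qPCR-derived linear calibration; plate values were scaled to a w.t. TP-DNAP1 control.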

p1-encoded leu2 (Q180*) = test: qPCR measurement of p1-encoded leu2 (Q180*) copy number; details: qPCR-determined p1 copy number, OR-Y24 strains
Protocol: A calibration curve was established to correlate p1 copy number, determined via quantitative PCR (qPCR), with fluorescence of p1-encoded mKate2 (Table 1). Five TP-DNAP1 variants representing a wide range of copy numbers were transformed into ORY24 and passaged until w.t. p1 was displaced. The five OR-Y24 strains were grown to saturation, diluted 1:10,000 to mimic p1 fluctuation tests, and grown in triplicate 100 μL cultures and duplicate 40 mL cultures. 100 μL saturated cultures were subject to fluorescence measurement of mKate2 (ex/em=561 nm/620 nm, bandwidth=15 nm) on a flow cytometer (Invitrogen Attune NxT). Whole-cell DNA extracts were prepared from 40 mL cultures and used as templates for qPCR measurement of p1-encoded leu2 (Q180*), as described previously (Ravikumar et al., 2014). p1-encoded LEU2 was PCR amplified with qPCR-Leu2F and qPCR Leu2R; and genomic LEU3 was PCR amplified with qPCR-Leu3F and qPCR-Leu3R using SyBR Green (Fisher Scientific) master mix.

B1: WT: wild-type Kluyveromyces lactis DNA polymerase TP-DNAP2, SEQ ID NO:13 (protein, listed as Kluyveromyces lactis)
chain: MNDELAFLNSQIDDYSDDIEFLRTEVFRINRYSKSIYSLMKNSSKEAIKETIEFNKYGQEIHSKIKEKEISLIEAIKLMEKKYKYLRSLNKTKDKSKKKKIHTKDIETLKTIYKTKADFDIRNFKNAETFTYENYSLLIPSEKELIDLIPEIEEDYSYYFYVSLTITGPTIFGGVTRKVPIIDTYGDINKDFYNKIKENITKVLDRVPFYEEKESEIICKKVLITLTVNKWESIDKWYKNVKSKSKKFKDFTLFLASDTSKNCVQQCVEYLGGKWNTNYSLEKMIPQQKIVTYIPLLMDIQYVQSMEDLISDFDEPNTDCKNIARLLKWNGHMGVITKIDKDVKINRIQRKRIIDVENKEVKEVFFDIESFSDETKHQIPYLICWSYLGELYYRTGKNCIKEFVEEILSYNVDIILYAWYGSGYDYQHVLPYMKSKCIKDKYIIKNNMITYGELYYENAIIYLKDPYLFILTSLDKASKAFNVINKGEFPHSIIHSWEDLNKILPNWVKIQKRMIEYKDDNKLNIYYKNIEIFENDRNYNTILENAIEYCKVDVLAMEKVWIKFKKLLEKNLNITVSVKTFTLSQLSMKIMESKLPKYVKLYVPTLEEYSKIRNAIYGGRVISKNGIYEENIVYADVVSLYPSAMKLLKHSYGKPKLVDYIDFEKHGIYRVTLLNKHDQEPKNYLNFVPRRINRKLTWEWFKIHEGWYHTYDLIIAKSEGFDIYCHEGFEYPEKDYIFNDFIDTLYSMKETHTACSCEEQPCPIRMVAKIALNGGGYGKFVQKPIDKEIYIVKRDVVAGECDKLQENENGEICIGKRLVKRPLFYNLDSENYDKMIIEKEDEPIYSTQCGISILSASRYRLYKLCKQFENIDIIYSDTDSIFVKQKSVDWELFKSKCGSELGQLDSTIDDTKNAIISKMYIGGAKMYAFEYLNNKNKLITKLHCKGVPNYMLSLNQFKYLMESPDNTIAYKFEIIRRKLVNVITKDLIKDIKQT
- change in p1 mutation rate by TP-DNAP2 (p1-encoded leu2*): no effect

B2: Y424Q: TP-DNAP2 variant (protein, listed as Kluyveromyces lactis)
chain: B1 chain with Y424Q
- change in p1 mutation rate by TP-DNAP2 (p1-encoded leu2*): unaltered

B3: S370Q: TP-DNAP2 variant (protein, listed as Kluyveromyces lactis)
chain: B1 chain with S370Q
- change in p1 mutation rate by TP-DNAP2 (p1-encoded leu2*): unaltered

B4: TP-DNAP1-4-2: TP-DNAP1 variant (L477V, L640Y, I777K, W814N), encoded by SEQ ID NO:11 (protein, listed as Kluyveromyces lactis)
chain: MDYKDKALNDLRNVYADFDSLPLDFRQILIKDRATLLQKEDVEKKILERQEDAKKYAEYLKQSEIPERISLPNIKRHKGVSISFEETSEDMVLEPRPFIFDGLNIRCFRRETIFSLKNKILNMVKESSSFKNVSRQSVSFMYFKIFNKGKVIASTKSVNIYEDKIDERLEDLCNNFDDVLKKIIDVTYGYESLFVSETYSYVIFYAKSIYFPQPRCVNNWGNNIPNILTFDSFKLFTANKNNVSCIKQCSRFLWQKDFNTLEEMIEYKNGNICIVTPQLHINDVRDIKSFNDIRLYSESPIKTFSVIDNTITYLFYFKEHLGVIFNITKSRHDRRVTKFSPLSKFSDVKNITVCFDIESYFDPEKESNQVNIPFICCASIIYNKVIGNIVDFEGRDCVAQMIEYVVDICGELNISSVELIAHNGGGYDFHYILSSMYNPAAIKNILIRNNSFISFNFAHDGVKFSVKDSYSFLLCSVANASKAFLNEETFKKTDFPHHDLKTADDLYKVYKEWSSVNTEINHVVEKEKLLITSEHIVNFTKNDKSKTLIEWSKDYCRNDVLVLSKVWLEFKNAVEDIFNCELVDQTMTLAGLSYKLFQANMPFDVELRHPNKEDYFNMREALIGGRCISVNGIYKDVLCYDVKSLYPASMAFYDQPYGSFKRVSSRPKDELGIYYVRVTPNRNNKSNFFPIRSHNKITYNNFEESTYIAWYTNVDIDIGLSEGHNIEYIPFDSYGNIGYSWSKKGKIFEKYIKDVLYKLKIKYEKQNNKVKRNVIKKIMNSLWGKFAQKWVNFEYFIKSEDDIDFESEEAYKINDTDFMLIKKIKESTYSSKPIQNGVFTLSWARYHMKSIWDAGAKEGAECIYSDTDSIFVHKEHFKKNAKFMLNGLKVPIIGSEVGQLELECEFDKLLCAGKKQYMGFYTYFQDGKPCIKEKKRFKGIPSNYIIPELYAHLLSGADKEAKIQFLKFRREWGSVKGYIENKTVKAT
- p1 copy number (p1; sustained by TP-DNAP1 variant): ~5
- Average leu2 (Q180*) copy number per cell (p1-encoded leu2 (Q180*); L640Y, I777K, W614N): 16.9 and 15.6
- fold increase of p1 mutation rate (p1-encoded leu2*; AR-Y304, polymerase in trans): 870 fold

B5: w.t.: wild-type Kluyveromyces lactis DNA polymerase TP-DNAP1, SEQ ID NO:1 (protein, listed as Kluyveromyces lactis)
chain: B4 chain with V477L, Y640L, K777I, N814W
- Fold-change of p1 copy number over w.t. (p1; G410 (w.t.) background): 1.0 ± 0.27 fold
- Fold-change of p1 copy number over w.t. (p1; variant additionally carrying G410H): 1.53 ± 0.33 fold
- Average leu2 (Q180*) copy number per cell (p1-encoded leu2 (Q180*)): 68.9 and 88.1
- specificity for p1 over p2 (p1-encoded leu2*): at least 870 fold
